Data from patent US20220251228A1 (SHANGHAI HANSOH BIOMEDICAL, published 2022).
Where a chain is given by its changes, count along the chain named.

T1: human BCMA on NCI-H929 tumor cells (human, UniProt Q02223 1-184)
T1 sequence (looked up): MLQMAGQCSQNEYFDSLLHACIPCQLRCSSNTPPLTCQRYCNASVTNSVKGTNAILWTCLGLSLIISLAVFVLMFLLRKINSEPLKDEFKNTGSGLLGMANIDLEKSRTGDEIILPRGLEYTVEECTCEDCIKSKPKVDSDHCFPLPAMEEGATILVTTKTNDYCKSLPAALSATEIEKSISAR

B1: humanized anti-BCMA antibody Ab2 (antibody, human IgG1, kappa, V domains shown)
VH: QVQLVQSGAEVKKPGASVKVSCKASGYSFSDYEMHWVRQAPGQGLEWIGGIHPGSGGSAYNQKFKGRVTLTVDKSTSTAYMELSSLRSEDTAVYYCTRLDYGYSWAWFPYWGQGTLVTVSA
VL: EIVLTQSPATLSLSPGERATLSCSASSSVIYMNWYQQKPGQSPKIWIYGISNLASGVPARFSGSGSGTDFTLTISSLEPEDFAVYYCQQRSSYPLTFGGGTKVEIKR
B2: humanized anti-BCMA antibody Ab1 (antibody, human IgG1, kappa, V domains shown)
VH: B1 VH with I48M, L70M, V72R, K74T, A79V
VL: B1 VL with S42A, K44R, I45L, W46L, V57I
B3: humanized anti-BCMA antibody Ab3 (antibody, human IgG1, kappa, V domains shown)
VH: B1 VH with R67K, V68A
VL: B1 VL with V3L, S22T, Q41S, D69S

What follows are binders tested against T1, human BCMA on NCI-H929 tumor cells (assay: cell-based or functional assay).

Binder	Endocytosis efficiency % (0.5 hour)	Endocytosis efficiency % (2 hours)
B1	36.7%	48%
B2	36.6%	49.5%
B3	35.5%	45.7%
